Measured values as given in patent publication US20250051467A1 (JIANGSU HENGRUI PHARMACEUTICALS, published 2025).

Key:
[1] = target: T1, h-FAP-His (human, UniProt Q12884 26-760); assay: ELISA, human FAP-His coated
T1 construct: range 26-760; Bought recombinant protein with a His tag; also called human FAP-His protein; FAP recombinant protein with a His tag
Protocol: A FAP recombinant protein with a His tag was directly used for coating. After the antibodies were added, a secondary antibody (an HRP-conjugated anti-human IgG antibody) and the HRP substrate TMB were added to measure the binding activity of the antibodies to the antigen. The assay comprises the following steps: A […] solution of human FAP-His protein was used to coat a 96-well microplate at 100 μL/well, and the plate was incubated overnight at 4° C. After a thorough wash, a blocking solution was added at 200 μL/well, and the plate was incubated at room temperature for 2 h. After a thorough wash, dilutions of test anti-FAP antibodies were added at 100 μL/well. The plate was incubated at room temperature for 1 h. After a thorough wash, a 1:20,000 dilution of an HRP-labeled goat anti-human IgG secondary antibody was added at 100 μL/well. The plate was incubated at room temperature for 1 h. After a thorough wash, TMB was added at 100 μL/well, and the plate was incubated in the dark for 15 min. 0.16 M sulfuric acid was added at 50 μL/well. The OD value at 450 nm was measured on a Thermo MultiSkanFc microplate reader, and the binding EC₅₀ values of the anti-FAP antibodies were calculated.

[2] = target: T1, h-FAP-His; assay: SPR, antibody captured by anti-human IgG Fc, h-FAP-His analyte
Protocol: (§1) A CM5 sensor chip was used, and HBS-EP+buffer solution (10 mM HEPES, 150 mM NaCl, 3 mM EDTA, 0.05% surfactant P20) was used as the mobile phase. An anti-human IgG (Fc) antibody was made into a […] solution in a 10 mM sodium acetate buffer solution (pH 5.0) and immobilized by amino coupling. The test antibodies were diluted in HBS-EP+buffer solution and captured by the anti-human IgG (Fc) antibody on chip channels. h-FAP-His was dissolved in HBS-EP+buffer solution to prepare an analyte, and the analyte was serially diluted 2-fold. The diluted antibodies were passed through the experimental and reference channels at a flow rate of […], with 1 min of binding and 15 min of disassociation. 10 mM Glycine pH 1.5 was passed as a regeneration buffer solution for 30 s at a flow rate of […]. Data were analyzed. […] However, the binding affinities of the other anti-FAP antibodies obtained by screening at the same time in the present disclosure, such as Ab2, Ab4 and Ab5 (sequences not shown), for the antigen are lower than that of 28H1.

[3] = target: T2, human FAP on CHO cells (human, UniProt Q12884 1-760); assay: FACS, CHO cells overexpressing human FAP
T2 construct: whole, on cells; also called CHO cell line overexpressing human FAP; CHOK1/FAP
Protocol: (§2) A FACS assay was used to measure the binding properties of anti-FAP antibodies on cells. The assay comprises the following steps: A CHO cell line overexpressing human FAP was constructed and plated (1E5/well). The test antibodies were added at 100 μL/well. The highest concentration was 100 nM. A 5-fold dilution was performed, yielding 8 concentrations in total. The plate was incubated at 4° C. for 1 h. Anti-hIgG Alexa Fluor-647 was added as a secondary antibody in the ratio of 1:500. The plate was incubated at 4° C. for 30 min, and a FACS assay was performed. Antibodies that bind to FAP can mark cells. The relation between the percentage of the marked cells that over-express human FAP among all cells and the antibody concentration is shown in FIG. 1. The relation between the percentage of the marked cells that over-express mouse FAP among all cells and the antibody concentration is shown in FIG. 2.

[4] = target: T3, mouse FAP on CHOK1 cells (mouse, UniProt P97321 1-761); assay: FACS, percent of marked cells overexpressing mouse FAP, anti-hIgG Alexa Fluor-647 secondary antibody
T3 construct: whole, on cells; also called cell surface mouse FAP
T3 sequence (P97321 whole entry): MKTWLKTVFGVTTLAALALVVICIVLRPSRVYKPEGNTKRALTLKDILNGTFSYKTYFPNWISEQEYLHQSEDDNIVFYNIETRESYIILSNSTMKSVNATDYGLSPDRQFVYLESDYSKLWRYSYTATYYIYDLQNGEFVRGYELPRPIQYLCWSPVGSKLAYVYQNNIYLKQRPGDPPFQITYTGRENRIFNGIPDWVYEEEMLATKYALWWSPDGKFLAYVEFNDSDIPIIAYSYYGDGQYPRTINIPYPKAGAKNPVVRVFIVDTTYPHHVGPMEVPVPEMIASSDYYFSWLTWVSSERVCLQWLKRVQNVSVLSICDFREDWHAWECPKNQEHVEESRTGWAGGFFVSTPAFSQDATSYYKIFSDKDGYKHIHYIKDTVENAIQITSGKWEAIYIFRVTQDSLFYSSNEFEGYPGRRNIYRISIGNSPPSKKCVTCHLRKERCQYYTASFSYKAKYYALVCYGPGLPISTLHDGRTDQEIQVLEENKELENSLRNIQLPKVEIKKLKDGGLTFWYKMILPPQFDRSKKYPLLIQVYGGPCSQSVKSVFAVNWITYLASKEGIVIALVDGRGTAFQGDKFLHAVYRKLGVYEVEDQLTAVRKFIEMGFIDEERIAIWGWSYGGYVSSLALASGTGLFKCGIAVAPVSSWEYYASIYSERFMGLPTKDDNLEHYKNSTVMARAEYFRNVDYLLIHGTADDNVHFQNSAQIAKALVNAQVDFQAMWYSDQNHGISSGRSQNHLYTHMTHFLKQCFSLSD
Protocol: as §2

[5] = target: T1, h-FAP-His; assay: SPR, h-FAP-His analyte; lower end tied to Ab14 by Table 6
Protocol: as §1

[6] = target: T4, cynomolgus monkey FAP on CHOK1 cells (cynomolgus monkey); assay: FACS, CHOK1 cells stably expressing cynomolgus monkey FAP
T4 construct: whole, on cells
Protocol: (§3) In this experiment, the binding of the anti-FAP/CD40 bispecific antibodies to stably transfected strains of CHOK1 cells that highly express human FAP, cynomolgus monkey FAP and mouse FAP was measured by FACS.

[7] = target: T5, human FAP protein (Acro, FAP-H5244) (human, UniProt Q12884 26-760); assay: SPR (Biacore 8K), antibody captured by anti-human IgG Fc, human FAP analyte
T5 construct: Bought protein
Protocol: (§4) The affinities of the anti-FAP/CD40 bispecific antibodies for their antigens, the human FAP protein (Acro, FAP-H5244) and the human CD40 protein (Acro, CD0-H5228), were measured by SPR (GE Healthcare; Biacore 8K). A CM5 sensor chip was used, and HBS-EP+buffer solution (10 mM HEPES, 150 mM NaCl, 3 mM EDTA, 0.05% surfactant P20) was used as the mobile phase. An anti-human IgG (Fc) antibody was immobilized by amino coupling. The test antibodies were separately diluted in HBS-EP+buffer solution as ligands and captured by the anti-human IgG (Fc) antibody on chip channels. Antigenic proteins of different species were used as analytes.

[8] = target: T2, human FAP on CHO cells; assay: FACS, CHOK1 cells stably expressing human FAP
Protocol: as §3

[9] = target: T3, mouse FAP on CHOK1 cells; assay: FACS, CHOK1 cells stably expressing mouse FAP
Protocol: as §3

[10] = target: T1, h-FAP-His; assay: SPR, h-FAP-His analyte; upper end tied to Ab15 by Table 6
Protocol: as §1

[11] = target: T6, human CD40 on cells (Raji cells; HEK-Blue CD40L cells; human dendritic cells) (human, UniProt P25942 21-277); assay: flow cytometry on immature human dendritic cells (CD40)
T6 construct: whole, on cells; One entry for untagged full-length human CD40 on cells; also called Raji cell surface human CD40; human cell surface CD40 antigen
T6 sequence (P25942 21-277): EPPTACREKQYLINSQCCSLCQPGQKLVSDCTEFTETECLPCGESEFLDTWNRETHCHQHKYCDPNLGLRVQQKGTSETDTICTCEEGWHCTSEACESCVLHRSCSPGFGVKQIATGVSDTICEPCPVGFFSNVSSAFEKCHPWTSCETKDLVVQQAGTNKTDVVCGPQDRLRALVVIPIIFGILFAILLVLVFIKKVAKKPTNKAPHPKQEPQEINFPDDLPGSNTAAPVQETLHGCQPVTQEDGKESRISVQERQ

[12] = target: T7, h-CD40-His (human, UniProt P25942 21-193); assay: SPR (Biacore 8K), antibody captured by anti-human IgG Fc, human CD40 analyte
T7 construct: range 21-193; Bought His-tagged recombinant protein; also called human CD40 protein (Acro, CD0-H5228); human CD40
T7 sequence (P25942 21-193 limits assumed): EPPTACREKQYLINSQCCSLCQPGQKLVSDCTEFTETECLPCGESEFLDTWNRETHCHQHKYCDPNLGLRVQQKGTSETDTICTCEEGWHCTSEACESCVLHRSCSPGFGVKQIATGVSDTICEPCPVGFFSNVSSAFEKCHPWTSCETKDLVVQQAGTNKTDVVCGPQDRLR
Protocol: as §4

[13] = target: T6, human CD40 on cells (Raji cells; …); assay: FACS, HEK-Blue CD40L cells expressing human CD40
Protocol: (§5) The binding of the bispecific antibodies to cell surface CD40 was measured by FACS, including HEK-Blue™CD40L cells highly expressing human CD40 (Invivogen, Cat #hkb-cd40), and HEK293 cells that were transiently transfected with cynomolgus monkey CD40 plasmids (Sino Biological, cat #CG90970-UT) and thus made to highly express cynomolgus monkey CD40. […] See FIGS. 9A, 9B and 11 and Table 21 for details.

[14] = target: T8, cynomolgus monkey CD40 on HEK293 cells (cynomolgus monkey, UniProt G7PG38 21-278); assay: FACS, HEK293 cells transiently expressing cynomolgus monkey CD40
T8 construct: whole, on cells
Protocol: as §5

Row | EC50 [1] | Kd [2] | Ratio of KD of 28H1 to KD of test antibody [2] | Ratio of Kd of 28H1 to Kd of test antibody [2] | koff [2] | kon [2] | EC50 [3] | EC50 (read off the curve) [4] | EC50 [6] | Emax (MFI) [6] | Kd [7] | koff [7] | kon [7] | EC50 [8] | Emax (MFI) [8] | EC50 [9] | Emax (MFI) [9] | EC50 (read off the curve) [11] | Kd [12] | koff [12] | Binder | other results
1 | 101000 ng/mL | 0.306 nM | 4.3 | 3.54 | 7.19e-05 s⁻¹ | 235000 M⁻¹ s⁻¹ | 0.368 ng/mL | ~5 ng/mL | – | – | – | – | – | – | – | – | – | – | – | – | Ab9 (antibody, human IgG1, kappa, L234A L235A, V domains shown, Fully human, IgG1 / kappa; also called anti-FAP antibody Ab9) VH: QMQLVQSGAEVKKPGASVTVSCRASGYSFADHFIHWVRQAPGQGFQWMGWINPNRGVTHHAQDFQGRVAMTRDMSTDTVYMELTSLRSDDTAVYYCARDESLTARPYYFYGFDVWGQGTLVTVSS VL: DIQMTQSPSSVSASVGDRVTITCRASQGISSWLAWYQQKPGKAPKLLIYAASSLQSGVPSRFSGSGSGTDFTLTISSLQPEDFATYYCQQANSFPPAFGQGTKVEIKR | –
2 | 417000 ng/mL | 0.365 nM | 3.6 | 2.1 | 0.000121 s⁻¹ | 332000 M⁻¹ s⁻¹ | 0.474 ng/mL | ~8 ng/mL | – | – | – | – | – | – | – | – | – | – | – | – | Ab14 (antibody, human IgG1, kappa, L234A L235A, V domains shown, Fully human, IgG1 / kappa; also called anti-FAP antibody Ab14; Ab114) VH: QVQLQQSGVEVKKPGASVTVSCRASGYSFADHFIHWVRQAPGQGFQWMGWINPNRGVTHHAQDFQGRVAMTRDMSTDTVYMELTSLRSDDTAVYYCARDASLTARPYYFYGFDVWGQGTLVTVSS VL: EIVLTQSPSSVSASVGDRVTITCRASQGISSWLAWYQQKPGKAPKLLIYAASSLQSGVPSRFSGSGSGTDFTLTISSLQPEDFATYYCQQANSFPLTFGGGTKVEIKR | fold affinity over 28H1 [5]: 3 to 6 times
3 | 92000 ng/mL | 0.245 nM | 5.3 | 3.5 | 7.28e-05 s⁻¹ | 297000 M⁻¹ s⁻¹ | 0.432 ng/mL | ~2 ng/mL | 7.34 nM | 64600 MFI | 0.34 nM | 7.39e-05 s⁻¹ | 217000 M⁻¹ s⁻¹ | 1.41 nM | 72000 MFI | 10.4 nM | 26400 MFI | – | – | – | Ab10 (antibody, human IgG1, kappa, L234A L235A, V domains shown, Fully human, IgG1 / kappa; also called anti-FAP antibody Ab10; Ab110) VH: QVQLQQSGVEVKKPGASVTVSCRASGYSFADHFIHWVRQAPGQGFQWMGWINPNRGVTHHAQDFQGRVAMTRDMSTDTVYMELTSLRSDDTAVYYCARDASLTARPYYFYGFDVWGQGTLVTVSS VL: DIQMTQSPSSVSASVGDRVTITCRASQGISSWLAWYQQKPGKAPKLLIYAASSLQSGVPSRFSGSGSGTDFTLTISSLQPEDFATYYCQQANSFPPAFGQGTKVEIKR | –
4 | 321000 ng/mL | 0.215 nM | 6.1 | 2.43 | 0.000105 s⁻¹ | 488000 M⁻¹ s⁻¹ | 0.486 ng/mL | ~8 ng/mL | – | – | – | – | – | – | – | – | – | – | – | – | Ab15 (antibody, human IgG1, kappa, L234A L235A, V domains shown, Fully human, IgG1 / kappa; also called anti-FAP antibody Ab15) VH: QMQLVQSGAEVKKPGASVTVSCRASGYSFADHFIHWVRQAPGQGFQWMGWINPNRGVTHHAQDFQGRVAMTRDMSTDTVYMELTSLRSDDTAVYYCARDESLTARPYYFYGFDVWGQGTLVTVSS VL: EIVLTQSPSSVSASVGDRVTITCRASQGISSWLAWYQQKPGKAPKSLIYAASSLQSGVPSRFSGSGSGTDFTLTISSLQPEDFATYYCQQANSFPPTFGGGTKVEIKR | fold affinity over 28H1 [10]: 3 to 6 times
5 | – | – | – | – | – | – | – | – | 1.09 nM | 28200 MFI | 0.405 nM | 8.22e-05 s⁻¹ | 203000 M⁻¹ s⁻¹ | 2.51 nM | 65200 MFI | 0.79 nM | 12600 MFI | ~4 nM | 141 nM | 0.0294 s⁻¹ | Ab10-A297V3-2 (bispecific antibody, human IgG1, kappa, L234A L235A, Ab10 IgG1 (L234A/L235A) with one A297V3 VHH on each heavy chain C-terminus; divalent for CD40; also called Ab0-A297V3-2) heavy: not shown light: DIQMTQSPSSVSASVGDRVTITCRASQGISSWLAWYQQKPGKAPKLLIYAASSLQSGVPSRFSGSGSGTDFTLTISSLQPEDFATYYCQQANSFPPAFGQGTKVEIKRTVAAPSVFIFPPSDEQLKSGTASVVCLLNNFYPREAKVQWKVDNALQSGNSQESVTEQDSKDSTYSLSSTLTLSKADYEKHKVYACEVTHQGLSSPVTKSFNRGEC | kon [12]: 209000 M⁻¹ s⁻¹; EC50 [13]: 1.66 nM; Emax (MFI) [13]: 6250 MFI; EC50 [14]: 1.31 nM; Emax (MFI) [14]: 4930 MFI
6 | – | – | – | – | – | – | – | – | 1.35 nM | 32500 MFI | 0.378 nM | 6.96e-05 s⁻¹ | 184000 M⁻¹ s⁻¹ | 1.57 nM | 53800 MFI | 1.65 nM | 12700 MFI | ~1 nM | 262 nM | 0.137 s⁻¹ | Ab10-A297V3-4 (bispecific antibody, human IgG1, kappa, L234A L235A, Ab10 IgG1 (L234A/L235A) with two A297V3 VHHs in tandem on each heavy chain C-terminus; tetravalent for CD40; also called Ab0-A297V3-4) heavy: not shown light: DIQMTQSPSSVSASVGDRVTITCRASQGISSWLAWYQQKPGKAPKLLIYAASSLQSGVPSRFSGSGSGTDFTLTISSLQPEDFATYYCQQANSFPPAFGQGTKVEIKRTVAAPSVFIFPPSDEQLKSGTASVVCLLNNFYPREAKVQWKVDNALQSGNSQESVTEQDSKDSTYSLSSTLTLSKADYEKHKVYACEVTHQGLSSPVTKSFNRGEC | kon [12]: 524000 M⁻¹ s⁻¹; EC50 [13]: 0.94 nM; Emax (MFI) [13]: 5080 MFI; EC50 [14]: 0.88 nM; Emax (MFI) [14]: 5120 MFI
